B1: mouse anti-SARS-CoV-2 spike monoclonal antibody clone S1D7 (antibody, V domains shown)
VH: QVQLQQSGAELVKPGASVKLSCKASGYTFTSYYIYWMKQRPGQGLEWIGEINPNNGGTNFNEKFKSKATLTVDKSSSTAYMQLSSLTSEDSAVYYCTRGHSDYWGQGTTLTVSS
VL: DIVLTQSPASLAVSLGQRATISCRASESVEYYGTGLMQWYQQKPGQPPKLLIYAASNVESGVPARFSGSGSGTDFSLNIHPVEEDDIAMYFCQQTRKVPYTFGGGTKLEIK
B2: mouse anti-SARS-CoV-2 spike monoclonal antibody clone S3D8 (antibody, V domains shown)
VH: QVQLQQSGAELVKPGASVKLSCKASGYTFTSYYMYWMKQRPGQGLEWIGEINPSNGGTNFNEKFKSKATLTVDKSSSTAYMQLSSLTSEDSAVYYCTIFITRDAMDYWGQGTSVTVSS
VL: QIVLTQSPAIMSASPGEKVTLTCSASSSVSSSYLFWYQQKPGSSPKLWIYTTSNLASGVPARFSGSGSGTSYSLTISSMEAEDAASYFCHQWSSYPPTFGAGTKLELK
B3: mouse anti-SARS-CoV-2 spike monoclonal antibody clone R15 (antibody, V domains shown)
VH: QIQLVQSGPELKKPGETVKISCKASGYTFTKYGINWVKQAPGKDLKWMGWINTYTGEPAYGDDFKGRFAFSLETSTNTAYLQINNFKNEDTATYFCARNGAMDYWGQGTSVTVSS
VL: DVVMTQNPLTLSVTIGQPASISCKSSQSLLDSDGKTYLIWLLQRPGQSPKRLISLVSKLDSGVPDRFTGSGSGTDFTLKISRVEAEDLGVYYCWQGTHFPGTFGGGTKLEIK
B4: mouse anti-SARS-CoV-2 spike monoclonal antibody clone R22 (antibody, V domains shown)
VH: EVQLQQSGPELVRPGASVKISCKTSGYTFTEYIIHWVKQSHGKSLEWIGGIDPNNGDTSYNQKFKGKASLTVDKSSSTAYMELRSLTSDDSAVYYCARLDFDYWGQGTTLTVSS
VL: DIVMTQSHKFMSTSVGDRVSITCKASQDVRTAVAWYQQKPGQSPKLLIYWASTRYTGVPDRFTGSGSGTDYTLTISSVQAEDLALYYCQQHDSTPLTFGAGTKLELK
B5: mouse anti-SARS-CoV-2 spike monoclonal antibody clone R31 (antibody, V domains shown)
VH: QVQLQQSGAELVRPGTSVKISCKASYTFTNYWLAWVKQRPGHGLEWIGDIYPGGAYTNFNEKFKGKATLTADTSSSTAYMQLSSLTSEDSAVYFCARDGHYGYAMDYWGQGTSVTVSS
VL: DIVMTQAAFSNPVTLGTSASISCRSSKSLLHSNGITYLYWYLQKPGQSPQLLIYQMSDLASGVPDRFSSSGSGTDFTLRISRVEAEDVGVYYCAQNLELPRTFGGGIKLEIK
B6: mouse anti-SARS-CoV-2 spike monoclonal antibody clone R52 (antibody, V domains shown)
VH: QIQLVQSGPELKKPGETVKISCKASGYTFTNYGMNWVKQAPGNGLRWMGWINTYTREPSYAADFKGRFAFSLETSARAAYLQINNLKNEDTATYFCARNGAMDYWGQGTSVTVSS
VL: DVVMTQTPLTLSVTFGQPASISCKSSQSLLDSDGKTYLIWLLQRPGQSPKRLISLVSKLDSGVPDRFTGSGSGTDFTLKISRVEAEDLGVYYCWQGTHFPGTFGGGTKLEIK

Columns and labels:
Conditions in all cases: both partners purified
[1] = molecular target: T1, SARS-CoV-2 spike receptor-binding domain (RBD) glycoprotein from the mammalian expression system (SARS-CoV-2 Wuhan-Hu-1, UniProt P0DTC2); assay: co-IP
[2] = molecular target: T1, SARS-CoV-2 spike receptor-binding …; assay: ELISA
[3] = molecular target: T1, SARS-CoV-2 spike receptor-binding …; assay: western blotting

| Binder | binding result [1] | binding result [3] | also measured |
| --- | --- | --- | --- |
| B1 | binds |  |  |
| B2 | binds |  |  |
| B3 |  |  | binding result [2]: binds |
| B4 |  | binds |  |
| B5 |  | binds |  |
| B6 |  | binds |  |
